# Measurements from patent publication US20170145104A1 (Bristol-Myers Squibb, published 2017).
# Positions count from the first letter of the chain named. Names and notes keep the numbering of the source.
# T1: human GITR, membrane bound (on activated human T cells and on 3A9-hGITR cells) (human, UniProt Q9Y5U5 26-241)
# T1 construct: whole, on cells; the cell is named under assay; also called huGITR; TNFRSF18
# T1 sequence (looked up): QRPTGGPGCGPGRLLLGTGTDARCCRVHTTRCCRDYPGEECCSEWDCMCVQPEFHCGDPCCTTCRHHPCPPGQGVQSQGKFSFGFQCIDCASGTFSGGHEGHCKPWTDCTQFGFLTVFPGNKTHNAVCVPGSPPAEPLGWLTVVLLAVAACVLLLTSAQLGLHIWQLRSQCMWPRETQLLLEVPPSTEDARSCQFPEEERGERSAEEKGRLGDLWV
# B1: 28F3 VH CDR3 mutant M98L, M111F (antibody, V domains shown)
# VH: QVQLVESGGGVVQPGRSLRLSCAASGFTFSSYGMHWVRQAPGKGLEWVAVIWYEGSNKYYADSVKGRFTISRDNSKNTLYLQMNSLRAEDTAVYYCARGGSLVRGDYYYGFDVWGQGTTVTVSS
# VL: AIQLTQSPSSLSASVGDRVTITCRASQGISSALAWYQQKPGKAPKLLIYDASSLESGVPSRFSGSGSGTDFTLTISSLQPEDFATYYCQQFNSYPYTFGQGTKLEIK
# notes: also called C2
# B2: 28F3 VH CDR3 mutant M98A, M111F (antibody, V domains shown)
# VH: B1 VH with L102A
# VL: B1 VL
# notes: also called G2
# B3: 28F3 VH CDR3 mutant M98S, D106E, M111L (antibody, V domains shown)
# VH: B1 VH with L102S, D106E, F111L
# VL: B1 VL
# B4: 28F3 VH CDR3 mutant M98L, D106E, M111L (antibody, V domains shown)
# VH: B1 VH with D106E, F111L
# VL: B1 VL
# notes: also called C3
# B5: 28F3 VH CDR3 mutant M98V, M111F (antibody, V domains shown)
# VH: B1 VH with L102V
# VL: B1 VL
# notes: also called A2
# B6: 28F3 VH CDR3 mutant M98Q, D106E, M111L (antibody, V domains shown)
# VH: B1 VH with L102Q, D106E, F111L
# VL: B1 VL
# notes: also called E3
# B7: 28F3 VH CDR3 mutant M98F, M111L (antibody, V domains shown)
# VH: B1 VH with L102F, F111L
# VL: B1 VL
# notes: also called B1
# B8: 28F3 VH CDR3 mutant M98Q, M111L (antibody, V domains shown)
# VH: B1 VH with L102Q, F111L
# VL: B1 VL
# notes: also called E1
# B9: 28F3 VH CDR3 mutant M98V, M111L (antibody, V domains shown)
# VH: B1 VH with L102V, F111L
# VL: B1 VL
# notes: also called A1
# B10: 28F3 VH CDR3 mutant M98F, D106E, M111L (antibody, V domains shown)
# VH: B1 VH with L102F, D106E, F111L
# VL: B1 VL
# notes: also called B3
# B11: 28F3 VH CDR3 mutant M98I, D106E, M111L (antibody, V domains shown)
# VH: B1 VH with L102I, D106E, F111L
# VL: B1 VL
# notes: also called D3
# B12: 28F3 VH CDR3 mutant M98S, M111L (antibody, V domains shown)
# VH: B1 VH with L102S, F111L
# VL: B1 VL
# notes: also called F1
# B13: 28F3 VH CDR3 mutant M98L, M111L (antibody, V domains shown)
# VH: B1 VH with F111L
# VL: B1 VL
# notes: also called C1
# B14: 28F3 VH CDR3 mutant M98I, M111F (antibody, V domains shown)
# VH: B1 VH with L102I
# VL: B1 VL
# notes: also called D2
# B15: 28F3 VH CDR3 mutant M98V, D106E, M111L (antibody, V domains shown)
# VH: B1 VH with L102V, D106E, F111L
# VL: B1 VL
# notes: also called A3
# B16: 28F3 VH CDR3 mutant M98Y, D106E, M111L (antibody, V domains shown)
# VH: B1 VH with L102Y, D106E, F111L
# VL: B1 VL
# notes: also called H3
# B17: 28F3 VH CDR3 mutant M98Y, M111L (antibody, V domains shown)
# VH: B1 VH with L102Y, F111L
# VL: B1 VL
# notes: also called H1
# B18: 28F3 VH CDR3 mutant M98I, M111L (antibody, V domains shown)
# VH: B1 VH with L102I, F111L
# VL: B1 VL
# notes: also called D1
# B19: 28F3 VH CDR3 mutant M98A, D106E, M111L (antibody, V domains shown)
# VH: B1 VH with L102A, D106E, F111L
# VL: B1 VL
# notes: also called G3
# B20: 28F3 VH CDR3 mutant M98A, M111L (antibody, V domains shown)
# VH: B1 VH with L102A, F111L
# VL: B1 VL
# notes: also called G1
# B21: 28F3 VH CDR3 mutant M98Q, M111F (antibody, V domains shown)
# VH: B1 VH with L102Q
# VL: B1 VL
# notes: also called E2
# B22: 28F3 VH CDR3 mutant M98S, M111F (antibody, V domains shown)
# VH: B1 VH with L102S
# VL: B1 VL
# notes: also called F2
# B23: 28F3 VH CDR3 mutant M98Y, M111F (antibody, V domains shown)
# VH: B1 VH with L102Y
# VL: B1 VL
# notes: also called H2
# B24: Non mutated 28F3 (control of the VH CDR3 mutant panel) (antibody, V domains shown)
# VH: B1 VH with L102M, F111M
# VL: B1 VL
# notes: also called H6
# B25: 28F3 VH CDR3 mutant M98Y, D106E (antibody, V domains shown)
# VH: B1 VH with L102Y, D106E, F111M
# VL: B1 VL
# notes: also called G5
# B26: 28F3 VH CDR3 mutant M98F (antibody, V domains shown)
# VH: B1 VH with L102F, F111M
# VL: B1 VL
# notes: also called A6
# B27: 28F3 VH CDR3 mutant M98I (antibody, V domains shown)
# VH: B1 VH with L102I, F111M
# VL: B1 VL
# notes: also called C6
# B28: 28F3 VH CDR3 mutant M98S, D106E (antibody, V domains shown)
# VH: B1 VH with L102S, D106E, F111M
# VL: B1 VL
# notes: also called E5
# B29: 28F3 VH CDR3 mutant M98L, D106E (antibody, V domains shown)
# VH: B1 VH with D106E, F111M
# VL: B1 VL
# notes: also called B5
# B30: 28F3 VH CDR3 mutant M98Y (antibody, V domains shown)
# VH: B1 VH with L102Y, F111M
# VL: B1 VL
# notes: also called G6
# B31: 28F3 VH CDR3 mutant M98Q, D106E, M111F (antibody, V domains shown)
# VH: B1 VH with L102Q, D106E
# VL: B1 VL
# notes: also called D4
# B32: 28F3 VH CDR3 mutant M98V, D106E (antibody, V domains shown)
# VH: B1 VH with L102V, D106E, F111M
# VL: B1 VL
# notes: also called H4
# B33: 28F3 VH CDR3 mutant M98V (antibody, V domains shown)
# VH: B1 VH with L102V, F111M
# VL: B1 VL
# notes: also called H5
# B34: 28F3 VH CDR3 mutant M98I, D106E (antibody, V domains shown)
# VH: B1 VH with L102I, D106E, F111M
# VL: B1 VL
# notes: also called C5; M98I/D160E
# B35: 28F3 VH CDR3 mutant M98A, D106E (antibody, V domains shown)
# VH: B1 VH with L102A, D106E, F111M
# VL: B1 VL
# notes: also called F5
# B36: 28F3 VH CDR3 mutant M98S (antibody, V domains shown)
# VH: B1 VH with L102S, F111M
# VL: B1 VL
# notes: also called E6
# B37: 28F3 VH CDR3 mutant M98Q (antibody, V domains shown)
# VH: B1 VH with L102Q, F111M
# VL: B1 VL
# notes: also called D6
# B38: 28F3 VH CDR3 mutant M98A (antibody, V domains shown)
# VH: B1 VH with L102A, F111M
# VL: B1 VL
# notes: also called F6
# B39: 28F3 VH CDR3 mutant M98L (antibody, V domains shown)
# VH: B1 VH with F111M
# VL: B1 VL
# notes: also called B6
# B40: 28F3 VH CDR3 mutant M98Q, D106E (antibody, V domains shown)
# VH: B1 VH with L102Q, D106E, F111M
# VL: B1 VL
# notes: also called D5
# B41: 28F3 VH CDR3 mutant M98A, D106E, M111F (antibody, V domains shown)
# VH: B1 VH with L102A, D106E
# VL: B1 VL
# notes: also called F4
# B42: 28F3 VH CDR3 mutant M98F, D106E (antibody, V domains shown)
# VH: B1 VH with L102F, D106E, F111M
# VL: B1 VL
# notes: also called A5
# B43: 28F3 VH CDR3 mutant M98V, D106E, M111F (antibody, V domains shown)
# VH: B1 VH with L102V, D106E
# VL: B1 VL
# notes: also called A4
# B44: 28F3 VH CDR3 mutant M98L, D106E, M111F (antibody, V domains shown)
# VH: B1 VH with D106E
# VL: B1 VL
# notes: also called C4
# B45: 28F3 VH CDR3 mutant M98F, D106E, M111F (antibody, V domains shown)
# VH: B1 VH with L102F, D106E
# VL: B1 VL
# notes: also called B4
# Target: T1, human GITR, membrane bound (on …)
# Experiment: FACS binding to 3A9-hGITR transfectant, Geo-MFI (PE); EC50 table beside the curves; unit from the axis
row,EC50 [nM],Binder
1,1.38,B1
2,171,B2
3,~1250,B3
4,1.22,B4
5,3.7,B5
6,20.4,B6
7,51.8,B7
8,21.7,B8
9,3.53,B9
10,417,B10
11,1.07,B11
12,60.3,B12
13,0.674,B13
14,1.33,B14
15,2.87,B15
16,183,B16
17,620,B17
18,1.03,B18
19,62,B19
20,187,B20
21,16.6,B21
22,246,B22
23,246,B23

# Target: T1, human GITR, membrane bound (on …)
# Experiment: as above
# Remark: another data set of the same source
row,EC50 [nM],Binder
1,0.334,B24
2,0.798,B25
3,0.797,B26
4,1.42,B27
5,2.29,B28
6,0.311,B29
7,1.68,B30
8,3.33,B31
9,0.58,B32
10,0.34,B33
11,0.349,B34
12,0.401,B35
13,3.51,B36
14,1.44,B37
15,1.5,B38
16,0.757,B39
17,0.968,B40
18,19.1,B41
19,0.683,B42
20,0.772,B43
21,0.638,B44
22,54,B45
